Measurements as given in IntAct's records for PubMed 23000721.

B1: Chitin biosynthesis protein CHS6 (Saccharomyces cerevisiae), P40955 (parent)
chain: MNLFWPSETKKQNEIPGGDYTPGNSPSVQKGYQFLNRDIFKSCPRIMERQFGECLHNRTHLIKDLISSGNVGLGPIEIVHMSYLNKHEKEEFGEYFYVTGIEVSGPAMPVEFLEVLKSSKRISKNISNNIILTYCCFNFFSNLDIRIRYDADDTFQTTAIDCNKETTDLTMTEKMWEETFASSVIRAIITNTNPELKPPGLVECPFYVGKDTISSCKKIIELLCRFLPRSLNCGWDSTKSMQATIVNNYLMYSLKSFIAITPSLVDFTIDYLKGLTKKDPIHDIYYKTAMITILDHIETKELDMITILNETLDPLLSLLNDLPPRDADSARLMNCMSDLLNIQTNFLLNRGDYELALGVSNTSTELALDSFESWYNLARCHIKKEEYEKALFAINSMPRLRKNDGHLETMYSRFLTSNYYKKPLNGTREHYDLTAMEFTNLSGTLRNWKEDELKRQIFGRIAMINEKKIGYTKEIWDDIAIKLGPICGPQSVNLINYVSPQEVKNIKNINLIARNTIGKQLGWFSGKIYGLLMEIVNKIGWNGLLNIRTEAFMMETEFYQASNNIIDENGHIPMESRKKRFCEGWLDDLFLDLYQDLKLSKISLSNKDEKHSGLEWELLGLIMLRTWHWEDAVACLRTSIVARFDPVSCQQLLKIYLQPPKNIQEVTLLDTDTIISLLIKKISYDCRYYNYCQIFNLQLLEKLCNELGTHILRNKILLQPSIGDEIMVMIDAMLAWIADLDHTVQP
partner: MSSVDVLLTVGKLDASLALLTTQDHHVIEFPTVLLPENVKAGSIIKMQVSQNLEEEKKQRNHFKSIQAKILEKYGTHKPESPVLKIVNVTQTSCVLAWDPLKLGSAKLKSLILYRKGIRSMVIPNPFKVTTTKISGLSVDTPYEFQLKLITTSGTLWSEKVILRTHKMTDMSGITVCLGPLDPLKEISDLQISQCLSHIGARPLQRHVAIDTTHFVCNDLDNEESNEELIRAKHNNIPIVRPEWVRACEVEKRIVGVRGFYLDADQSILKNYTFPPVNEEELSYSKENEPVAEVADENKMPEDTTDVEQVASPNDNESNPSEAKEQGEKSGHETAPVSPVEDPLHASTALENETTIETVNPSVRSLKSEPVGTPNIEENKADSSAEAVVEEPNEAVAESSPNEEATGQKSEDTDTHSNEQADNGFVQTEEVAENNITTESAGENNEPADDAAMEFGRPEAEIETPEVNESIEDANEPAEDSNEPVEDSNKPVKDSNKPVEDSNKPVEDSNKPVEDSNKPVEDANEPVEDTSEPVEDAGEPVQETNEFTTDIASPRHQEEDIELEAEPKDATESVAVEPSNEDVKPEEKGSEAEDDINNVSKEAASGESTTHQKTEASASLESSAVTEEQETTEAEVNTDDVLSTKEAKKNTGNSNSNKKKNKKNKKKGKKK
B2: Chitin biosynthesis protein CHS5 (Saccharomyces cerevisiae), Q12114 (parent)
chain: B1 partner
partner: B1 chain

Variants of: B1
Conditions: with chs5_yeast CHS5, Q12114
In the case of I305R, the “effect of a mutation on the interaction” value is reported as “disrupting interaction”.

Variants of: B2
Conditions: with chs6_yeast CHS6, P40955
Q67E was tested, and the “effect of a mutation on the interaction” value was “disrupting interaction”.
For F63E, the “effect of a mutation on the interaction” value was “disrupting interaction”.
